Reference: patent US20230104113

Tested on: NF-kB (human)
Experiment: cell_activity
Settings: lipid transfection of 1 pmol

AAAAAAAAAAGAUCUUGAAACUGUUUUAAGGUUGGCCGAUCUUAAAAAA [NF-kB aptamer circular RNA]
activity (A549 MTT day 2 (89% day 1), with doxorubicin 79% day 1, 73% day 2): 86 % viability

AAAAAAAAAAGAUCUUGAAACUGUUUUAAGGUUGGCCGAUCUUAAAAAA [NF-kB aptamer linear RNA]
activity (5' monophosphate, A549 MTT day 2 (101% day 1), with doxorubicin 78% day 2): 97 % viability
